B1: CymR 4 (peptide)
peptide: MFYI
B2: Staphylococcus aureus O-acetyl-L-serine sulfhydrylase (CysK) (enzyme, S. aureus, UniProt P63871 1-310, looked up)
chain: MAQKPVDNITQIIGGTPVVKLRNVVDDNAADVYVKLEYQNPGGSVKDRIALAMIEKAEREGKIKPGDTIVEPTSGNTGIGLAFVCAAKGYKAVFTMPETMSQERRNLLKAYGAELVLTPGSEAMKGAIKKAKELKEEHGYFEPQQFENPANPEVHELTTGPELLQQFEGKTIDAFLAGVGTGGTLSGVGKVLKKEYPNIEIVAIEPEASPVLSGGEPGPHKLQGLGAGFIPGTLNTEIYDSIIKVGNDTAMEMSRRVAKEEGILAGISSGAAIYAAIQKAKELGKGKTVVTVLPSNGERYLSTPLYSFDD
modifications: PLP cofactor in a Schiff base linkage with the ε-amino group of K46

Columns and labels:
[1] = target: Staphylococcus aureus O-acetyl-L-serine sulfhydrylase (CysK) (S. aureus) (UniProt P63871); experiment: SPR
crystal structure = target: the molecule itself; experiment: crystal structure

Row | Binder | Kd [1] | stoichiometry N (crystal structure)
1 | B1 | 4.1 µM | 
2 | B2 |  | 2

Source: paper doi:10.1101/2024.09.19.614015 (bioRxiv, 2024)
